Experimental data published in patent publication US20100068199A1 (RINAT NEUROSCIENCE, published 2010).
Read-outs that look alike come from different tables or passages of the source.

Key:
[1] = target: T1, PCSK9
T1 construct: neither names the species

[2] = target: T2, recombinant mouse PCSK9 (mouse, UniProt Q80W65 35-694); test: Biacore; format not described
T2 construct: also called mPCSK9; murine PCSK9

[3] = target: T3, recombinant human PCSK9 (human, UniProt Q8NBP7 31-692); test: Biacore; format not described
T3 construct: also called hPCSK9

[4] = target: T3, recombinant human PCSK9; test: ELISA, blocking: biotinylated human PCSK9 (0.4nM) binding to immobilized human LDLR extracellular domain, pH7.5
Procedure: (§1) ELISA plates (Corning Mixisorb) were coated with a solution of 1 μg/ml recombinant LDLR extracellular domain (R&D Systems) in each well at 4 C overnight, blocked with 2% BSA+PBS for 2 hrs at room temperature, and then washed 5 times with washing buffer (1×PBS+0.05% Tween-20). Wells were incubated with 50 μl of indicated concentrations of biotinylated PCSK9 protein for 1 hr RT. LDLR-PCSK9 binding can be stabilized by adding 50 μl of 4% FDH+4% sucrose+PBS solution and incubate for 5 min. Wells were washed 5 times with washing buffer, incubated with 1:2000 dilution of HRP conjugated Strepavidin (Invitrogen) for 1 hr at RT, washed 5 times with washing buffer. TMB substrate was added to the wells, the solution was incubated 20 to 30 min at RT, and the reaction was terminated using 1 M phosphoric acid. Signals were read at 450 nm.

[5] = target: T2, recombinant mouse PCSK9; test: SPR (Biacore 3000); full-length IgG captured on anti-mouse IgG, PCSK9 injected
Procedure: (§2) The affinities of PCSK9 antibodies to PCSK9 were measured on a surface plasmon resonance Biacore 3000 biosensor equipped with a research-grade sensor chip using HBS-EP running buffer (Biacore AB, Uppsala, Sweden—now GE Healthcare). Rabbit polyclonal anti-Ms IgGs were amine-coupled at saturating levels onto the chip using a standard N-hydroxysuccinimide/ethyldimethylaminopropyl carbodiimide (NHS/EDC) chemistry. The buffer was switched to HBS-EP+1 mg/mL BSA+1 mg/mL CM-dextran.
(§3) Dissociation was monitored for 5 min. The chip was regenerated after the last injection of each titration with two 30 sec pulses of 100 mM phosphoric acid. Buffer cycles provided blanks for double-referencing the data, which were then fit globally to a simple binding model using Biaevaluation software v.4.1. Affinities were deduced from the quotient of the kinetic rate constants (KD=koff/kₒₙ).

[6] = target: T3, recombinant human PCSK9; test: as above
Procedure: as §2, §3

[7] = target: T2, recombinant mouse PCSK9; test: ELISA, blocking: biotinylated mouse PCSK9 (0.8nM) binding to immobilized human LDLR extracellular domain, pH7.5
Procedure: as §1

[8] = target: T3, recombinant human PCSK9; test: TR-FRET in solution at neutral pH: biotinylated human PCSK9 (30 nM) binding to Europium labeled LDLR extracellular domain (10 nM) blocked by the mAb
[9] = target: rat PCSK9 in plasma (rat, UniProt P59996 31-691); test: antibody incubated with plasma, complexes purified and probed by Western blot
Procedure: To determine the species specificity of the anti-PCSK9 antibodies, antibodies were incubated with plasma from different species and the resultant complexes were purified and probed by an independent anti PCSK9 antibody on Western blots. […] Id.

[10] = target: T2, recombinant mouse PCSK9; test: competition ELISA; antibody blocks biotinylated PCSK9 binding to immobilized recombinant LDLR extracellular domain
[11] = target: T3, recombinant human PCSK9; test: as above
[12] = target: T1, PCSK9; remark: listed apart in the source

T3 sequence (Q8NBP7 31-692 limits assumed): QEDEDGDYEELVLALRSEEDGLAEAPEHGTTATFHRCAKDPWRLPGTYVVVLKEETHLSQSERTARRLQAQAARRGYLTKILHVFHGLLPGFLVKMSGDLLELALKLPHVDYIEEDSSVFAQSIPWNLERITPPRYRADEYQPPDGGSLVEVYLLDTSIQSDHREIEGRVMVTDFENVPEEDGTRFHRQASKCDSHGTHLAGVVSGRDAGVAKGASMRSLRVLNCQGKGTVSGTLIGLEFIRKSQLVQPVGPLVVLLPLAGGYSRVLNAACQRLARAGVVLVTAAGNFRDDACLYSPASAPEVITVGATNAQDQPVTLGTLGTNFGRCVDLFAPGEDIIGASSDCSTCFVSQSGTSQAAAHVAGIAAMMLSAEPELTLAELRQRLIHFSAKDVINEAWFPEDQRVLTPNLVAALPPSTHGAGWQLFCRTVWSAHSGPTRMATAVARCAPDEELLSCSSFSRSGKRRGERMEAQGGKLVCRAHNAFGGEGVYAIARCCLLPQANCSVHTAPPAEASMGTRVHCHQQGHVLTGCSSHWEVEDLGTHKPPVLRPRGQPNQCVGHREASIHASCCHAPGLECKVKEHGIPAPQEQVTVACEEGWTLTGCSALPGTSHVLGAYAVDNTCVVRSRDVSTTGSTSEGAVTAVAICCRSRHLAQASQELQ
rat PCSK9 in plasma, sequence (P59996 31-691 limits assumed): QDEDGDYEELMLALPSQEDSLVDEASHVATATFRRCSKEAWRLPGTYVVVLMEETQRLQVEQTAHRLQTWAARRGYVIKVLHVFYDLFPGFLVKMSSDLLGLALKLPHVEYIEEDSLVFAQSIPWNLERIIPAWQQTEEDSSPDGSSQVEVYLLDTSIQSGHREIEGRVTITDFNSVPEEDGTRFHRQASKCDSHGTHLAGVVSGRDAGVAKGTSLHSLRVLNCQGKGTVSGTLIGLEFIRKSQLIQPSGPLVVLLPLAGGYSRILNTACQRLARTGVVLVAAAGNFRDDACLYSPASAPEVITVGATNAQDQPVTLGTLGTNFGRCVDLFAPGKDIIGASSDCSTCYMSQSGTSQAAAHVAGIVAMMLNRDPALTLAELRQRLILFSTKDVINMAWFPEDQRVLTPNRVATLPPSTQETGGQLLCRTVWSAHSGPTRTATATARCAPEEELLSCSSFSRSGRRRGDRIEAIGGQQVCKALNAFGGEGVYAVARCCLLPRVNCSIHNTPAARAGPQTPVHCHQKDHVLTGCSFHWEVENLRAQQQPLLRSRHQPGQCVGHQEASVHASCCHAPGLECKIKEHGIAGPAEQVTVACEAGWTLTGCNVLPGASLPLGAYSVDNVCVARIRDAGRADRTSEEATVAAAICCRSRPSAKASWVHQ
T2 sequence (Q80W65 other isoform, or with tags, fused parts or gaps limits assumed): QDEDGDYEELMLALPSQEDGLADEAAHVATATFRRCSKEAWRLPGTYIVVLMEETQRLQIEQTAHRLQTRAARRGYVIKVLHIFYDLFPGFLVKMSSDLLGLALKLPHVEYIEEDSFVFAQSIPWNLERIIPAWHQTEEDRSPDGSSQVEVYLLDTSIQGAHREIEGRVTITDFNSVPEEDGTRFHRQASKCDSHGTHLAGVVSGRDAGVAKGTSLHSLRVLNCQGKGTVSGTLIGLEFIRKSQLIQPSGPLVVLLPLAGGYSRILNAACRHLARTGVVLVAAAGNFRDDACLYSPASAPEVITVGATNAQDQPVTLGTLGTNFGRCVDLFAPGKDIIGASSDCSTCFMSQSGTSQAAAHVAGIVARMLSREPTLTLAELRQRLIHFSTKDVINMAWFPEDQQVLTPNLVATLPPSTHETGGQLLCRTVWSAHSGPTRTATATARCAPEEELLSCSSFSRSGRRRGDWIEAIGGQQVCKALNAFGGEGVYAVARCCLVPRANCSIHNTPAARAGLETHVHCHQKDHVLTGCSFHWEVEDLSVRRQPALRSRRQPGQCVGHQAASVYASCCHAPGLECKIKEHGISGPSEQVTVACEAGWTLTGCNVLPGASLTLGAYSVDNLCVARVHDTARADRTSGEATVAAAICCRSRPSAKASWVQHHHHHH
T1 sequence (prodomain, as listed by the source limits assumed, chain 1 of 2): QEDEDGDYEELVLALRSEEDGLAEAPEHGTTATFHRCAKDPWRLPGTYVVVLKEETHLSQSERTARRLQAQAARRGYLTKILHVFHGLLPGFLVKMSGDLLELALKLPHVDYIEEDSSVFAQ
T1 sequence (chain, as listed by the source limits assumed, chain 2 of 2): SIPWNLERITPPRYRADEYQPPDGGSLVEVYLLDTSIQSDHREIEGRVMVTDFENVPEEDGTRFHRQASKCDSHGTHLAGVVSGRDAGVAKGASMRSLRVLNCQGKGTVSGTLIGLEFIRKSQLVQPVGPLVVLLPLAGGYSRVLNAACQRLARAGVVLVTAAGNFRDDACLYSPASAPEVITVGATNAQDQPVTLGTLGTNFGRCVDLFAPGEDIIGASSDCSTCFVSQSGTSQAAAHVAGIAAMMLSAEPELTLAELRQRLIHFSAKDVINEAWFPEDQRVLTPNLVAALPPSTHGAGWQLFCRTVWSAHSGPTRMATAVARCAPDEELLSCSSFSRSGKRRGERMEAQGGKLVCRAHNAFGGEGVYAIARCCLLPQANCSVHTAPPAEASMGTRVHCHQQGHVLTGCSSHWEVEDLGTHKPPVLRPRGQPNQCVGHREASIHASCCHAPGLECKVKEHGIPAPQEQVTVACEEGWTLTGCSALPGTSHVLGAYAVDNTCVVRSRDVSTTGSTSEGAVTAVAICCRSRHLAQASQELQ

Row | Binder | Kd [1] [nM] | Kd [2] [nM] | Kd [3] [nM] | IC50 (read off the curve) [4] [nM] | Kd [5] [nM] | Kd [6] [nM] | koff [6] [s⁻¹] | kon [6] [M⁻¹ s⁻¹] | IC50 (read off the curve) [7] [nM] | IC50 [8] [nM] | binding result [9] | IC50 [10] [nM] | IC50 [11] [nM] | koff [5] [s⁻¹] | kon [5] [M⁻¹ s⁻¹] | Kd [12] [nM]
1 | L1L3 humanized anti-PCSK9 monoclonal antibody (antibody, V domains shown) VH: QVQLVQSGAEVKKPGASVKVSCKASGYTFTSYYMHWVRQAPGQGLEWMGEISPFGGRTNYNEKFKSRVTMTRDTSTSTVYMELSSLRSEDTAVYYCARERPLYASDLWGQGTTVTVSS VL: DIQMTQSPSSLSASVGDRVTITCRASQGISSALAWYQQKPGKAPKLLIYSASYRYTGVPSRFSGSGSGTDFTFTISSLQPEDIATYYCQQRYSLWRTFGQGTKLEIKR | 0.007 | 0.2 | 0.1 |  |  |  |  |  |  |  |  |  |  |  |  | 
2 | anti-PCSK9 antagonist monoclonal antibody 7D4 (antibody, V domains shown, Murine full-length IgG from a hybridoma; also called 7D4.4 (subclone); ATCC PTA-8983) VH: EVKLVESEGGLVQPGSSMKLSCTASGFTFSDYYMAWVRQVPEKGLEWVANINYDGSNTSYLDSLKSRFIISRDNAKNILYLQMSSLKSEDTATYYCAREKFAAMDYWGQGTSVTVSS VL: DIVMTQSHKFMSTSFGDRVSITCKASQDVSNALAWYQQKPGHSPKLLIFSASYRYTGVPDRFTGSGSGTDFTFTISSVQAEDLAVYYCQQHYSTPWTFGGGTKLEIKR |  |  |  | ~1 | 1.3 | 6.4 | 0.000794 | 125000 | ~0.9 | 5.4 | binds | 1 | 1.5 |  |  | 
3 | anti-PCSK9 antagonist monoclonal antibody 5A10 (antibody, V domains shown, Murine full-length IgG from a hybridoma; Mouse precursor of L1L3; also called 5A10.B8 (subclone)) VH: QVQLQQPGAELVKPGASVKLSCKASGYTFTSYWMHWVKQRPGQGLEWIGEINPSNGRTNYNEKFKSKATLTVDKSSSTAYMQLSSLTSEDSAVYYCARERPLYAMDYWGQGTSVTVSS VL: DIVMTQSHKFMSTSVGDRVSITCKASQDVSTAVAWYQQKPGQSPKLLIYSASYRYTGVPDRFTGSGSGTDFTFTISSVQAEDLAVYYCQQRYSTPRTFGGGTKLEIKR |  |  |  | ~0.3 | 3.9 | 1 | 8.55e-05 | 84700 | ~3 | 6 | binds | 3 | 0.4 | 0.000489 | 127000 | 1.1
4 | anti-PCSK9 antagonist monoclonal antibody 6F6 (antibody, V domains shown, Murine full-length IgG from a hybridoma; also called 6F6.G10.3 (subclone); ATCC PTA-8984) VH: EVQLQQSGPELVKPGASVKISCKASGYTFTDYYMNWVKQSHGKSLEWIGDINPNNGGTSYNQKFKGKATLTVDKSSSTAYMELRSLTSEDSAVYYCAGGGIYYRYDRNYFDYWGQGTTLTVSS VL: DIQMTQTTSSLSASLGDRVTISCSASQGISNYLNWYQQKPDGTVKLLIYYTSSLHSGVPSRFSGSGSGTDYSLTISNLEPEDIATYYCQQYSKLPFTFGSGTKLEIK |  |  |  | ~2 | 17.7 | 6.4 | 0.000584 | 91500 | ~10 | 6.5 | binds | 10 | 1.5 | 0.00197 | 111000 | 
5 | anti-PCSK9 antagonist monoclonal antibody 4A5 (antibody, V domains shown, Murine full-length IgG from a hybridoma; also called 4A5.G3 (subclone); ATCC PTA-8985) VH: EVQLQQSGPELVKPGASVKISCKASGYTFTDYYMNWVKQSHGKSLEWIGDINPNNGGTTYNQKFKGKATLTVDKSYSTAYMELRSLTSEDSAVYYCARWLLFAYWGQGTLVTVSA VL: DIVMTQSQKFMSTSVGDRVSVTCKASQNVGTNVAWYQQKPGQSPKALIYSASYRYSGVPDRFTGSGSGTDFTLTISNVLSEDLAEYFCQQFYSYPYTFGGGTKLEIKR |  |  |  | ~0.2 | 5.1 | 2.8 | 0.000189 | 66600 | ~3 | 7.1 | binds | 3 | 0.4 | 0.00072 | 141000 | 
